{
  "source": "patent US5567433A",
  "about": "“Liposome preparation and material encapsulation method” (Amgen Inc., priority 1995, dated 1996)",
  "key": {"[1]": {"assay": "In vivo release after subcutaneous injection into rats", "parameters": "species or system Sprague-Dawley rats", "conditions": "either liposome composition", "description": "Liposomes composed of either DPPC or DMPG:DSPC:CHOL (1:4:5 molar) were prepared substantially in accordance with Method 4, above, to contain either ^125 I-tyraminyl inulin (at a final specific activity of 0.4×10^6 dpm/ml) or ^125 I-rhG-CSF (at a final specific activity of 1×10^6 dpm/ml). (See: ^125 I-labeled Inulin: A convenient marker for deposition of liposome contents in vivo. Sommerman, E. F., Pritchard, P. H. and Cullis, P. R. Biochem Biophys Res Coramerc Vol. 122(1), 319-324; 1984.) The final lipid composition was 30 mM. The injection site was marked. At various times after injection, the rats were sacrificed and the injection site was excised and counted for remaining ^125 I. Percent release was defined as %Release=100(1-DPMt /DPMo), where DPMt is the dpm remaining at the site at time t, and DPMo is the initial dpm injected (t=0)."}, "[2]": {"assay": "Encapsulation of various protein therapeutics and oligonucleotides using Method 4", "assay_type": "physicochemical", "conditions": "up to; present invention", "procedure": "Lipid films, prepared as described in Method 1, were hydrated in water and sonicated. The sonicated dispersions were then subjected to 3-5 cycles of freezing (dry ice/acetone) and thawing (37° C). The dispersions were freeze dried and ground as in Method 2 to form a lipid powder. The powder was subsequently hydrated in G-CSF, and the liposome-encapsulated material was microfluidized as described in Method 1. Unencapsulated G-CSF was separated from encapsulated G-CSF as described in Method 2.\nThe lipid samples were prepared, sonicated and subjected to freeze/thaw cycles as described in Method 3. Prior to dehydrating the sample, D-mannitol was added (1:1 weight ratio to lipid) as a bulking agent. The samples were freeze-dried and rehydrated, upon use, as described in Method 3. Hydration and microfluidization was carried out as described in Method 1. The samples were then dialyzed as described in Method 2."}, "G-CSF": {"system": "G-CSF", "assay": "Reverse phase HPLC of encapsulated G-CSF", "assay_type": "physicochemical, human", "conditions": "C4 reverse phase HPLC", "from_the_text": "Biologically active material encapsulated in accordance with Method 4, above, was also subjected to reverse phase high pressure liquid chromatography (HPLC) to determine whether liposome-encapsulation led to structural changes in the encapsulated material. For example, G-CSF alone or encapsulated in DMPG:DSPC:CHOL (1:4:5) liposomes was examined by C4 reverse phase HPLC under the following conditions:\nBuffer A: 0.1% trifluoroacetic acid in water\nBuffer B: 0.1% trifluoroacetic acid in 90% acetonitrile\nGradient: 0-90% B in 60 minutes\nFlow rate: 0.8 milliliter/minute\nDetection: 220 nanometers\nThirty micrograms of G-CSF was loaded per run. Liposomes were lysed in 40% methanol for 30 minutes at 37° C. prior to chromatography."}},
  "data": [
    {"molecule": "inulin [reference compound]", "values": [
      {"measurement": "leakage of inulin or G-CSF", "setting": "[1]", "result": "No significant difference"}
    ]},
    {"molecule": "G-CSF: recombinant human granulocyte colony stimulating factor (protein, UniProt P09919 31-207, looked up) Granulocyte …: TPLGPASSLPQSFLLKCLEQVRKIQGDGAALQEKLVSECATYKLCHPEELVLLGHSLGIPWAPLSSCPSQALQLAGCLSQLHSGLFLYQGLLQALEGISPELGPTLDTLQLDVADFATTIWQQMEELGMAPALQPTQGAMPAFASAFQRRAGGVLVASHLQSFLEVSYRVLRHLAQP", "values": [
      {"measurement": "leakage of inulin or G-CSF", "setting": "[1]", "result": "No significant difference"},
      {"measurement": "Encapsulation of input", "setting": "[2]", "result": "80-90%"},
      {"measurement": "material destruction or aggregation upon encapsulation", "setting": "G-CSF", "result": "no material destruction or aggregation"},
      {"measurement": "structural integrity of G-CSF released from liposomes", "setting": "G-CSF; liposomes lysed in 40% methanol", "result": "structurally identical to G-CSF which was never encapsulated"},
      {"measurement": "Recovery", "setting": "G-CSF; 30 μg G-CSF injected", "result": 100, "unit": "%"}
    ]}
  ]
}
